Measured values reported in patent US20260008856A1, “METHODS OF TREATING DISEASE USING ANTI-IL1RAP ANTIBODIES AND ANTIBODY DRUG CONJUGATES” (Bluefin Biomedicine, Inc., priority 2022, published 2026).

Assays:
Format in all cases: cell-based
H69 = experiment: Flow cytometry binding to endogenous cell line H69; parameters: key: (−): No binding; (+): Weak binding; (++): Moderate binding; (+++): Strong binding; details: primary antibody 1 ug/ml
Procedure: Staining for flow cytometry was performed in 1× cold PBS with 0.5% BSA. Primary antibodies (1 ug/ml) were incubated with live cells on ice for 30 minutes, after a brief wash, cells were incubated with Alexa Fluro® 488-conjugated anti-human IgG secondary antibody @1:1000 (709-546-149, Jackson ImmunoResearch). Acquisition of the data was performed on a MACSQuant® Flow Cytometers (Miltenyi Biotec) and analyzed with FlowJo software.

IL-1β signaling = experiment: IL-1 signaling reporter cell assay (HEK-Blue IL-1β cells), IL-1β
Procedure: HEK-Blue IL-1β cells (Invivogen, CA) were harvested and plated in technical duplicates at a density of 50,000 cells per well in a 96-well plate. IL1RAP antibodies, or a corresponding human IgG1 control antibody was added to the wells in a concentration range of […]. After incubating cells with antibodies for 30 minutes, IL-1β was added to a final concentration of 0.5 ng/ml, and the plate was incubated overnight. To examine whether any of the antibodies were able to induce IL-1R activation in the absence of IL-1β, samples were incubated with 10 μg/mL antibody without addition of the ligand. The following day, substrate was added to the supernatants, and samples were analyzed for absorbance at 620 nm.

[1] = tested on: TARC production in HDM stimulated human PBMCs; experiment: TARC production in HDM stimulated human PBMCs; details: antibodies 30 ug/ml, HDM 10 ug/ml
Source text: Materials included Human peripheral blood mononuclear cells (PBMCs) that were isolated from healthy donor blood and either frozen in liquid nitrogen and thawed prior to analysis or used fresh. Materials also included HDM (house dust mite extract) that was from Greer lab and purchased through Fisher Scientific (NC9756554, Lot #390844). Additionally, Human IL-4 (204-IL-010) was purchased from R&D Systems; Human IL-13 (200-13) was purchased from Peprotech; JAK inhibitors (JAKi) Abrocitinib (HY-107429) and Upadacitinib (HY-19569) were purchased from MedChemExpress; Dexamethasone (D4902) was purchased from Sigma-Aldrich; Dupilumab (HY-P9926) was purchased from MedChemExpress; Tralokinumab was produced by Bluefin Biomedicine according to the published protein sequence; and TARC ELISA kits (DuoSet Cat #DY364, Quantikine Cat #SDN00) were purchased from R&D Systems.
Blood was drawn in heparin tubes from healthy volunteers. PBMCs were isolated by centrifugation of the blood over Ficoll-Paque Plus density gradients using LeucoSep tubes.
0.2 million PBMCs in 100 ul medium (RPMI1640, 10% heat-inactivated FBS) were added to each well of 96 well cell culture plate. BFB759 at multiple concentrations in 50 ul medium was added to the wells. The cells were incubated in the incubator for 45 min. Then, 50 ul HDM solution (final concentration 10 ug/ml) was added to the wells. […]

[2] = tested on: IL-6 secretion in human whole blood cultures stimulated with HKCA; experiment: IL-6 production in human whole blood cultures stimulated with heat-killed Candida albicans; details: 24 hours, 1 μg/ml alone, combination 1 μg/ml BFB759 + 0.5 μg/ml adalimumab
Source text: Materials included Human peripheral blood drawn from 5 healthy donors. Materials also included Anti-human TNF alpha (Adalimumab Biosimilar), BioXCell cat #SIM0001, lot #8024221F1; Heat-killed Candida albicans (HKCA), InvivoGen cat #tlrl-hkca, lot #6292-44-02; RPMI 1640 with L-glutamine and HEPES, Corning cat #10-041-CM; and Human IL-6 DuoSet ELISA, R and D Systems cat #DY206-05. Blood was drawn into heparin tubes from healthy volunteers. Whole blood cultures comprised of whole blood diluted with plain RPMI 1640 medium were set up in sterile 5.0 ml polypropylene snap cap culture tubes. One of the following treatments were added for 1 hour prior to either being left unstimulated or receiving stimulation with 1.5×10^6 cells heat-killed Candida albicans: medium alone (cells alone), 1 μg/ml IgG1 isotype control antibody alone, 1 μg/ml BFB759 alone, 1 μg/ml adalimumab alone, or one of two combination treatments of 1 μg/ml IgG1 isotype control antibody+0.5 μg/ml adalimumab or 1 μg/ml BFB759+0.5 μg/ml adalimumab. The final volume of each culture was 1.0 ml. Cultures were incubated for 24 hours at 37° C./5% CO2. Supernatants harvested from each culture in duplicate were frozen at −80° C. until assayed in duplicate for IL-6 levels by ELISA.

[3] = tested on: normal human dermal fibroblasts (NHDF); experiment: IL-6 and IL-8 production in NHDF stimulated with cytokine combo incl. IL-17A; details: cytokine combo IL-1α/β, IL-36α/β/γ, antibodies 0-20 ug/ml, BFB759 0.5 ug/ml in combination
Procedure: (§1) Human NHDF cells were plated on 96-well, flat-bottom plates at 4,000 cells/well. […] For combination therapy, 0.5 ug/ml BFB759 was mixed with Secukinumab or Isotype control antibody at increasing concentrations (0-20 ug/ml, 5-fold dilution) and incubated with cells in duplicate for 45 minutes, prior to the addition of cytokine combo. The plates were then incubated overnight at 37° C., 5% CO2. 24 hours after treatment, supernatants were transferred and assayed for IL-6 and IL-8, as per manufacture's protocol (R&D Systems; Human IL-6 DuoSet ELISA, Human IL-8/CXCL8 DuoSet ELISA). The raw assay data were analyzed using GraphPad Prism 9 software to perform a non-linear regression.

[4] = tested on: normal human dermal fibroblasts (NHDF); experiment: IL-6 and IL-8 production in NHDF stimulated with cytokine combo incl. TNF-α; details: cytokine combo IL-1α/β, IL-36α/β/γ, antibodies 0-20 ug/ml, BFB759 0.5 ug/ml in combination
Procedure: as §1, with “adalimumab” for “Secukinumab”, “isotype” for “Isotype”

B1: 37E10_15B5: human anti-IL1RAP antibody BFB759 (i.e., 37E10_15B5), VH SEQ ID NO: 64, VL SEQ ID NO: 68 (antibody, V domains shown)
VH: QVQLVESGGGVVQPGRSLRLSCAASGFTFRSHGMHWVRQAPGKGLEWVAVIWYDGSSEYYADSVKGRFTISRDNSKNTLYLQMNSLRAEDTAVYYCARENVYGSGWFFDYWGQGTLVTVSS
VL: EIVMTQSPATLSVSPGERASLSCRASQSVGSNLAWYQQRPGQAPRLLIFGASTRATGIPARFSGSRSGTEFTLTISSLQSEDFALYYCQQYNNWPPWTFGQGTKLEIK
binding to H69 by flow cytometry (H69): (−)
inhibition of IL1R1 / IL-1 signaling (IL-1β signaling; HEK-Blue IL-1β cells, antibody 1-10 pg/ml, IL-1β 0.5 ng/ml): potent inhibition
EC50 against IL-1β (IL-1β signaling; serial dilution of antibody, reporter assay): subnanomolar
inhibition of HDM induced TARC level, FIG. 13 [1]: inhibits
inhibition of IL-6 secretion [2]: inhibit IL-6 secretion
IL-6 production [3]: dose-dependent decrease
IL-8 production [3]: dose-dependent decrease
IL-6 production [4]: dose-dependent decrease
IL-8 production [4]: dose-dependent decrease
